Test results from PMC10197177.

How the values were obtained:
Experiment in all cases: ELONA
Conditions in all cases: pH 7.4, room temperature, spike immobilized
[1] = biological target: Spike protein, Delta (SARS-CoV-2 (Delta variant)) (UniProt P0DTC2)
[2] = biological target: Spike protein, Alpha (SARS-CoV-2 (Alpha variant)) (UniProt P0DTC2)
[3] = biological target: Spike protein, Omicron (SARS-CoV-2 (Omicron variant)) (UniProt P0DTC2)
[4] = biological target: Spike protein, Beta (SARS-CoV-2 (Beta variant)) (UniProt P0DTC2)

| Sequence | Kd [1] | Kd [2] | Kd [3] | Kd [4] |
| --- | --- | --- | --- | --- |
| AATGGATCCACATCTACGAGCTCGAACGCCCGGAGGAGACGGGGGCAGGGCGTGTTCACTGCAGACTTGACGAAGCT [K1 (truncated working aptamer)] | 0.037 nM | 0.034 nM | 0.026 nM | 0.034 nM |
| ATCTACGAATTCTCCGCCAAGATAGAGGGTGGGCCGCGGAGAATTCACTGC [M40 (truncated working aptamer)] | 0.187 nM | 0.28 nM | 0.165 nM | 0.276 nM |
